The text below walks through data of patent publication US20220289795, “EFFICIENT METHOD FOR PREPARING PPR PROTEIN AND USE OF THE SAME” (EditForce, Inc., published 2022).

Test in all cases: ELONA; RPB-ELISA
(In general: ELISA stands for enzyme-linked immunosorbent assay.)

The target in series [1] is T1, v3.1_PPR13 (Artificial Sequence).
T1 chain: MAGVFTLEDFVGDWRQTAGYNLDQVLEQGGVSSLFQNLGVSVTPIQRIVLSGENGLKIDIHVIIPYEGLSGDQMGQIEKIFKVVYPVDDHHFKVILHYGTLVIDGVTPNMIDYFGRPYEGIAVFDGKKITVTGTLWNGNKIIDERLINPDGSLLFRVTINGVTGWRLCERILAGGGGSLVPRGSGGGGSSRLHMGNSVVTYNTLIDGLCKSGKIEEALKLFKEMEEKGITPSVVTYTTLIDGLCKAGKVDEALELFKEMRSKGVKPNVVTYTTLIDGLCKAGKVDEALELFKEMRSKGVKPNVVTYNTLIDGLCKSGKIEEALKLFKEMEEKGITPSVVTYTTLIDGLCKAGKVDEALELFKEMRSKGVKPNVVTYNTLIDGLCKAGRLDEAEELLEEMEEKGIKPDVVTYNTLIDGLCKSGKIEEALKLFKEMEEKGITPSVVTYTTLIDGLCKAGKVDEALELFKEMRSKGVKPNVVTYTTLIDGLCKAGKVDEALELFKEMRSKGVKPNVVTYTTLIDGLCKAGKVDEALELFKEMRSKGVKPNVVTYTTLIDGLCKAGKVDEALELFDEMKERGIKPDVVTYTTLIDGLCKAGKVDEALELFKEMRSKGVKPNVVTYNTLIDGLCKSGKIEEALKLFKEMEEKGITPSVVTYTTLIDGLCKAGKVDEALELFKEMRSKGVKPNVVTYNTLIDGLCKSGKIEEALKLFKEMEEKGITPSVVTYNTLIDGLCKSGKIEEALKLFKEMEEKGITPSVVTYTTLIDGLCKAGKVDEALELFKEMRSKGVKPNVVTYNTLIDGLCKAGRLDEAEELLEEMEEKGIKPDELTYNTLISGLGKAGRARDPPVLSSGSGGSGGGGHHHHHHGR
The settings on record: tags: luciferase fusion; label: 5'-biotin.

The target in series [2] is T2, NL_v2_PPR13 (Artificial Sequence).
T2 chain: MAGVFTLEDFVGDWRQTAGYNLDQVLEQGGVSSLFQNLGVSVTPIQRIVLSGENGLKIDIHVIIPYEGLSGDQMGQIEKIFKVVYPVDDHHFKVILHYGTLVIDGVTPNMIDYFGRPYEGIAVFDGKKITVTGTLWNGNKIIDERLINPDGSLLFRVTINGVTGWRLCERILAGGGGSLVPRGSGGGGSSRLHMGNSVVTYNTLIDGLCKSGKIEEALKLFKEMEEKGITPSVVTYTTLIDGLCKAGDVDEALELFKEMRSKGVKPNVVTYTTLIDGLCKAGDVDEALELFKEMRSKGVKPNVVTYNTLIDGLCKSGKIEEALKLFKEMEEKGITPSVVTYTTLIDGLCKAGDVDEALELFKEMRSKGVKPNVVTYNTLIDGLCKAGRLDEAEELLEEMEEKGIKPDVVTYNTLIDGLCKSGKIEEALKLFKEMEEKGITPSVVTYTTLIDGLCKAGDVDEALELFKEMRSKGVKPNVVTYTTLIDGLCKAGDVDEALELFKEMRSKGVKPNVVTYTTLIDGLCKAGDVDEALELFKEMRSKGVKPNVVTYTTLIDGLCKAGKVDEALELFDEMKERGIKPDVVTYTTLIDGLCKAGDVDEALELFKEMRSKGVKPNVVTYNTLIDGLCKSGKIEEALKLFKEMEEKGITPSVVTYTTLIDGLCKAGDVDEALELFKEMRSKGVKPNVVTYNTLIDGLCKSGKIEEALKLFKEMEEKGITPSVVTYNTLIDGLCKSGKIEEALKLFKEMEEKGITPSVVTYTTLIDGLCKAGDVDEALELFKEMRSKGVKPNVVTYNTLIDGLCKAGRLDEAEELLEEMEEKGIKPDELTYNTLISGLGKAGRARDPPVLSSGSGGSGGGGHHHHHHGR
The settings on record: tags: N-term luciferase, C-term 6xHis; label: 5'-biotin.

Series [3] deals with T3, NL_v2_PPR12 (Artificial Sequence).
T3 chain: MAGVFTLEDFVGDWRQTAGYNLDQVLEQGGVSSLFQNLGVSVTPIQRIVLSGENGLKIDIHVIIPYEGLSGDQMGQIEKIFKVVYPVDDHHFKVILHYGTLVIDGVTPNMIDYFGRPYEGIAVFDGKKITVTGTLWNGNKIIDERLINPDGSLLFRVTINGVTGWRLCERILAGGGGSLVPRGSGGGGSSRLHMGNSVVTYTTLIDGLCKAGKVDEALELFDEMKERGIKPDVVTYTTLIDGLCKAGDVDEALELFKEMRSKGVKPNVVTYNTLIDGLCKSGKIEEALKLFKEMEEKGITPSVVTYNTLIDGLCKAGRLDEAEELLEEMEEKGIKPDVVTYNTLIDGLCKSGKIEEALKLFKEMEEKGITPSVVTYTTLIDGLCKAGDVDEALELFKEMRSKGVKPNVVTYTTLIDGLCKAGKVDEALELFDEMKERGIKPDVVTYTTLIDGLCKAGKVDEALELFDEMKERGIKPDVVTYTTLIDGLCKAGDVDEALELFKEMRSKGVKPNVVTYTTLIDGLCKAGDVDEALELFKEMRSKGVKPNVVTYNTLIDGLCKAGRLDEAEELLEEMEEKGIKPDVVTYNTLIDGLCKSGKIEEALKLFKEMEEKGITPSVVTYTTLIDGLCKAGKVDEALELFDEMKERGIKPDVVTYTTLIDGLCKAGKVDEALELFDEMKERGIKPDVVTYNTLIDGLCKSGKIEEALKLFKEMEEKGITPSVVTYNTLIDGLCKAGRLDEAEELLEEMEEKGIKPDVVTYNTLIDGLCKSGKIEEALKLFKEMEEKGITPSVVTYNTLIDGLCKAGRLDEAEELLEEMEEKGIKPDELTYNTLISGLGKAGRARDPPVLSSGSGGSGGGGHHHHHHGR
The settings on record: tags: N-term luciferase, C-term 6xHis; label: 5'-biotin.

Series [4] has as its target T4, v3.1_PPR12 (Artificial Sequence).
T4 chain: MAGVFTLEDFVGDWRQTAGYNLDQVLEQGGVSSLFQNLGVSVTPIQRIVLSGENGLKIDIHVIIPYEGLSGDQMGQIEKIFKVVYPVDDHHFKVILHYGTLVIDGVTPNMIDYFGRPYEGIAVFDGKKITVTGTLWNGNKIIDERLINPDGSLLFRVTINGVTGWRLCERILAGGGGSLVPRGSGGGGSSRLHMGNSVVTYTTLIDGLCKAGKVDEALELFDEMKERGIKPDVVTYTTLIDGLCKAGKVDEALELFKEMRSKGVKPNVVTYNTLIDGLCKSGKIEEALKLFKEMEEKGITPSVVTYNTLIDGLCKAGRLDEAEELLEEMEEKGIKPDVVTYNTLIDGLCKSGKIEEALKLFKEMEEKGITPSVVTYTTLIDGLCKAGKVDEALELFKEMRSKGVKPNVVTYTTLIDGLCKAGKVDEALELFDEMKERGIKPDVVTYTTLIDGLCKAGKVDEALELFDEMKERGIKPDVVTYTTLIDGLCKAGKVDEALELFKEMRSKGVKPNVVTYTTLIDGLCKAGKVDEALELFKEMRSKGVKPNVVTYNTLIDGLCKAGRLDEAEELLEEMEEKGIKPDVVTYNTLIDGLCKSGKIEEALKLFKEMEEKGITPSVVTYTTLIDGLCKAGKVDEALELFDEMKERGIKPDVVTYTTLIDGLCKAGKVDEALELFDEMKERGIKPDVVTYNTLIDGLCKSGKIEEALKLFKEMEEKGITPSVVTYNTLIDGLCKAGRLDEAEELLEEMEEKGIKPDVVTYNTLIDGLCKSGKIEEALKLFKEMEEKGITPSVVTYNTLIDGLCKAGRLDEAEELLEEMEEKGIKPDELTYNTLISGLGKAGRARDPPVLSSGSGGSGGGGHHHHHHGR
The settings on record: tags: luciferase fusion; label: 5'-biotin.

For series [5], the target named is T5, NL_v2_PPR14 (Artificial Sequence).
T5 chain: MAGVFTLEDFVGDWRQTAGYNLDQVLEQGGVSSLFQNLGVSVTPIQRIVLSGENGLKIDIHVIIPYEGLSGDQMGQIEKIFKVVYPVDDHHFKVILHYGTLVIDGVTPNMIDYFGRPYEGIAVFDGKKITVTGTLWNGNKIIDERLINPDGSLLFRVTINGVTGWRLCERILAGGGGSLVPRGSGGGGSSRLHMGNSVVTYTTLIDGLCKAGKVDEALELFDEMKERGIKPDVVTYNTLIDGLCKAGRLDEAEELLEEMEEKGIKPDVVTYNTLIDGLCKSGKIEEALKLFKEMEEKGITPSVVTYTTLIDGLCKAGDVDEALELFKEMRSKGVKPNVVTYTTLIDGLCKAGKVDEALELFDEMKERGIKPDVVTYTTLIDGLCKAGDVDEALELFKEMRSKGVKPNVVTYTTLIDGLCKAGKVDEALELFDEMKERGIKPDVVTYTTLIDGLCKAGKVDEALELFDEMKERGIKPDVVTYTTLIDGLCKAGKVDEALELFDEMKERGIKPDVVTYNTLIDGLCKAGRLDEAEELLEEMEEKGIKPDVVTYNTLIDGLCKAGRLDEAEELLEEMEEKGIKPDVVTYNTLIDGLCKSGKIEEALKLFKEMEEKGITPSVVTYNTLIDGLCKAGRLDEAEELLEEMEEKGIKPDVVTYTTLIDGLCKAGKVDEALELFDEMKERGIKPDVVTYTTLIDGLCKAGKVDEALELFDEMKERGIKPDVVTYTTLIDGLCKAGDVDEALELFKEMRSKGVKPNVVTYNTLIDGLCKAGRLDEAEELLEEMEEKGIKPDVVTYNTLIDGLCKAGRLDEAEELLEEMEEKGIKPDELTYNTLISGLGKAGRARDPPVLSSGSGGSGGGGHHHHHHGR
The settings on record: tags: N-term luciferase, C-term 6xHis; label: 5'-biotin.

For series [6], the target named is T6, v3.1_PPR14 (Artificial Sequence).
T6 chain: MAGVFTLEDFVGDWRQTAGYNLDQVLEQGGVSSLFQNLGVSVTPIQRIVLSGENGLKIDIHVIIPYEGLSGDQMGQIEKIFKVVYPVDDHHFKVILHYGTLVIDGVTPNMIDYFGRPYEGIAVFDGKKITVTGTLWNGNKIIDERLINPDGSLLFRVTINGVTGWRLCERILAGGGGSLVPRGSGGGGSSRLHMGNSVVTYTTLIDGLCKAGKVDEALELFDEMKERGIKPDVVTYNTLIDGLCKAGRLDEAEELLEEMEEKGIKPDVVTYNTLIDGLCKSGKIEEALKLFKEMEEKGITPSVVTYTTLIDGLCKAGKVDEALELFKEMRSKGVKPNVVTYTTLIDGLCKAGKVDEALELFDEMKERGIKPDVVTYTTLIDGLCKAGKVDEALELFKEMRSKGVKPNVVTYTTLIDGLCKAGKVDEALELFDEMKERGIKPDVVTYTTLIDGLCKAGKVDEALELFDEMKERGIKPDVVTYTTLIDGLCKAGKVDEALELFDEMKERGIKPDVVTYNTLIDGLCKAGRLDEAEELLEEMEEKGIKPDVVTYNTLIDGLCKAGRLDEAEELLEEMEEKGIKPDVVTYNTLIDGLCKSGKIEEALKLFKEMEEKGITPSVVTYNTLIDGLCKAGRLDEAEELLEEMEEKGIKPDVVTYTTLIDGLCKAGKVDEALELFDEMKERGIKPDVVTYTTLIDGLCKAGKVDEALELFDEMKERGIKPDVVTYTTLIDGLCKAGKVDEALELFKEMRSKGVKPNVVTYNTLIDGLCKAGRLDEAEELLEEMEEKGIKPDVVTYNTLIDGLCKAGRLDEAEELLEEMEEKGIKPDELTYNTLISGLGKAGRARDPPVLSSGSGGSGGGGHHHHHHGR
The note with it: tags: luciferase fusion; label: 5'-biotin.

In the case of GACAUGCCAACAUCAAAGACACCAUGACUG (ssRNA) [RNA_13], the binding signal in series [1] is 4e+07 luminescence; in series [2], 2.3e+06 luminescence.
GACAUGCGACUCAGGAAUCGGCUCUGACUG (ssRNA) [RNA_12]: the binding signal in series [3] amounted to 3.8e+07 luminescence; in series [4], 1.8e+07 luminescence.
Regarding GACAUGCGUCAGAGGGUUCUGGAUUGACUG (ssRNA) [RNA_14], the binding signal in series [5] and in series [6] was 2.5e+07 luminescence throughout.
